Assay results: US20220177587A1, “METHODS AND USES OF VARIANT CD80 FUSION PROTEINS AND RELATED CONSTRUCTS” (Alpine Immune Sciences, Inc., priority 2018, published 2022)
Read-outs that look alike come from different tables or passages of the source. Blank lines part the entries; values can stand above or below the substance they belong to.

Tests used:
CD28 (human) [1] = biological target: CD28 (human) (UniProt P10747)
PD-L1 (human) [2] = biological target: PD-L1 (human) (UniProt Q9NZQ7)
PD-L1 (human) [3] = biological target: PD-L1 (human) (UniProt Q9NZQ7); experiment: flow cytometry, MFI on PD-L1 over MFI on CD28
human CTLA-4 (human) [4] = biological target: human CTLA-4 (human) (UniProt P16410); experiment: flow cytometry, CHO cells expressing CTLA4
human CTLA-4 (human), sequence (P16410 36-223): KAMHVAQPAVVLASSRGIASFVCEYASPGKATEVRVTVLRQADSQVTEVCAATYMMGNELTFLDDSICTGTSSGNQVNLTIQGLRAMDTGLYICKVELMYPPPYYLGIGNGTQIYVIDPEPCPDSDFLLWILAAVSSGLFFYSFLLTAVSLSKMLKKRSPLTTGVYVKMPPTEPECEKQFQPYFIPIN

CD28 (human) [5] = biological target: CD28 (human) (UniProt P10747); experiment: flow cytometry, Jurkat cells (CD28)
PD-L1 (human) [6] = biological target: PD-L1 (human) (UniProt Q9NZQ7); experiment: flow cytometry, CHO cells expressing PD-L1
CD28 (human) [7] = biological target: CD28 (human) (UniProt P10747); remark: listed apart in the source
PD-L1 (human) [8] = biological target: PD-L1 (human) (UniProt Q9NZQ7); remark: listed apart in the source
CD28 (human) [9] = biological target: CD28 (human) (UniProt P10747); remark: listed apart in the source
PD-L1 (human) [10] = biological target: PD-L1 (human) (UniProt Q9NZQ7); remark: listed apart in the source
CD28 (human) [11] = biological target: CD28 (human) (UniProt P10747); experiment: flow cytometry, Jurkat cells (CD28); remark: listed apart in the source
human CTLA-4 (human) [12] = biological target: human CTLA-4 (human) (UniProt P16410); experiment: flow cytometry, CHO cells stably expressing CTLA4
PD-L1 (human) [13] = biological target: PD-L1 (human) (UniProt Q9NZQ7); experiment: flow cytometry, CHO cells stably expressing PD-L1
PD-L1 (human) [14] = biological target: PD-L1 (human) (UniProt Q9NZQ7); experiment: flow cytometry, MFI on CHO/PD-L1 over MFI on Jurkat (CD28)

PD-L1 (human), sequence (Q9NZQ7 19-290): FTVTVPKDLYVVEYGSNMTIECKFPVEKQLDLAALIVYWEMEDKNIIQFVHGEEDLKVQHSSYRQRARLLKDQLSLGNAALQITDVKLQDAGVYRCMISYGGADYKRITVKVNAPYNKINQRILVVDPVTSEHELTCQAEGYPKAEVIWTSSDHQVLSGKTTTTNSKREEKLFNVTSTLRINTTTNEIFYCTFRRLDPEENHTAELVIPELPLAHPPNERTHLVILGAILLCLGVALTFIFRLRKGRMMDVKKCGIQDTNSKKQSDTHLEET

IL2-luciferase reporter (RLU), fold increase over WT CD80-IgV-Fc at 5.0 nM (CD28 (human) [1]): 1.2 fold | IL2-luciferase reporter (RLU), fold increase over WT CD80-IgV-Fc at 5.0 nM (PD-L1 (human) [2]): 1.2 fold
Substance: CD80 E35D/M47V/L85M/R94Q IgV-Fc (Fc fusion)

Ratio of PDL1:CD28 (PD-L1 (human) [3]): 50.1 | Fold change to WT CD80 (human CTLA-4 (human) [4]): 9 fold | MFI at 33.3 nM (human CTLA-4 (human) [4]): 15800 MFI | Fold change to WT CD80 (CD28 (human) [5]): 8.2 fold | MFI at 33.3 nM (CD28 (human) [5]): 257 MFI | Fold change to WT CD80 (PD-L1 (human) [6]): 250 fold | MFI at 33.3 nM (PD-L1 (human) [6]): 12900 MFI
Substance: CD80 H18Y/V22D/E35D/M47V/N48K/V68M IgV-Fc (Fc fusion)

RLU at 5.0 nM: Fold Increase over WT CD80-IgV-Fc (CD28 (human) [7]): 3.1 fold | RLU at 5.0 nM: Fold Increase over WT CD80-IgV-Fc (PD-L1 (human) [8]): 3.1 fold
Substance: CD80 IgV-Fc E35D/D46E/M47I/V68M/L85M (Fc fusion)

RLU at 5.0 nM: Fold Increase over WT CD80-IgV-Fc (CD28 (human) [9]): 5.5 fold | RLU at 5.0 nM: Fold Increase over WT CD80-IgV-Fc (PD-L1 (human) [10]): 5.5 fold | MFI at 33.3 nM (CD28 (human) [11]): 1430 MFI | MFI at 33.3 nM (human CTLA-4 (human) [12]): 19700 MFI | MFI at 33.3 nM (PD-L1 (human) [13]): 9300 MFI
Substance: CD80 IgV-Fc H18Y/E35D/M47I/V68M/Y87N (Fc fusion)

RLU at 5.0 nM: Fold Increase over WT CD80-IgV-Fc (CD28 (human) [9]): 5.7 fold | RLU at 5.0 nM: Fold Increase over WT CD80-IgV-Fc (PD-L1 (human) [10]): 5.7 fold | Fold change to WT CD80 (CD28 (human) [11]): 11.6 fold | MFI at 33.3 nM (CD28 (human) [11]): 478 MFI | Ratio of PDL1:CD28 (PD-L1 (human) [14]): 20 | Fold change to WT CD80 (human CTLA-4 (human) [12]): 18.7 fold | MFI at 33.3 nM (human CTLA-4 (human) [12]): 19500 MFI | RLU at 5.0 nM: Fold Increase over WT CD80-IgV-Fc (CD28 (human) [7]): 0.3 fold | RLU at 5.0 nM: Fold Increase over WT CD80-IgV-Fc (PD-L1 (human) [8]): 0.3 fold | Fold change to WT CD80 (PD-L1 (human) [13]): 135 fold | MFI at 33.3 nM (PD-L1 (human) [13]): 9580 MFI
Substance: CD80 IgV-Fc H18Y/E35D/M47L/Y53F/V68M/A71G (Fc fusion)

RLU at 5.0 nM: Fold Increase over WT CD80-IgV-Fc (CD28 (human) [7]): 0.3 fold | RLU at 5.0 nM: Fold Increase over WT CD80-IgV-Fc (PD-L1 (human) [8]): 0.3 fold
Substance: CD80 IgV-Fc T13R/Q33L/E35D/M47V/T62S/V68M/L85M (Fc fusion)

RLU at 5.0 nM: Fold Increase over WT CD80-IgV-Fc (CD28 (human) [7]): 2.4 fold | RLU at 5.0 nM: Fold Increase over WT CD80-IgV-Fc (PD-L1 (human) [8]): 2.4 fold
Substance: CD80 IgV-Fc V22D/E24D/E35D/M47L/V68M (Fc fusion)

RLU at 5.0 nM: Fold Increase over WT CD80-IgV-Fc (CD28 (human) [7]): 2.4 fold | RLU at 5.0 nM: Fold Increase over WT CD80-IgV-Fc (PD-L1 (human) [8]): 2.4 fold
Substance: CD80 IgV-Fc V22D/E24D/E35D/M47L/V68M/L85M/D90G (Fc fusion)

Ratio of PDL1:CD28 (PD-L1 (human) [3]): 77.9 | Fold change to WT CD80 (human CTLA-4 (human) [4]): 12.6 fold | MFI at 33.3 nM (human CTLA-4 (human) [4]): 22000 MFI | Fold change to WT CD80 (CD28 (human) [5]): 0.5 fold | MFI at 33.3 nM (CD28 (human) [5]): 14.2 MFI | Fold change to WT CD80 (PD-L1 (human) [6]): 21.5 fold | MFI at 33.3 nM (PD-L1 (human) [6]): 1110 MFI
Substance: CD80 T13R/Q33R/E35D/M38I/M47L/V68M/L85M IgV-Fc (Fc fusion)

IL2-luciferase reporter (RLU), fold increase over WT CD80-IgV-Fc at 5.0 nM (CD28 (human) [1]): 6.5 fold | IL2-luciferase reporter (RLU), fold increase over WT CD80-IgV-Fc at 5.0 nM (PD-L1 (human) [2]): 6.5 fold
Substance: CD80 V22A/E35D/M47L/A71G IgV-Fc (Fc fusion)

The next lines start with the substance.

Substance: CD80 H18Y/E35D/D46E/M47I/V68M/R94L IgV-Fc (Fc fusion)
Ratio of PDL1:CD28 (PD-L1 (human) [3]): 77.1 | Fold change to WT CD80 (human CTLA-4 (human) [4]): 13.3 fold | MFI at 33.3 nM (human CTLA-4 (human) [4]): 23300 MFI | Fold change to WT CD80 (CD28 (human) [5]): 7.8 fold | MFI at 33.3 nM (CD28 (human) [5]): 244 MFI | Fold change to WT CD80 (PD-L1 (human) [6]): 365 fold | MFI at 33.3 nM (PD-L1 (human) [6]): 18800 MFI

Substance: CD80 H18Y/E35D/M47L/V68M/E95V/L97Q IgV-Fc (Fc fusion)
Ratio of PDL1:CD28 (PD-L1 (human) [3]): 1020 | Fold change to WT CD80 (human CTLA-4 (human) [4]): 11.7 fold | MFI at 33.3 nM (human CTLA-4 (human) [4]): 20500 MFI | Fold change to WT CD80 (CD28 (human) [5]): 0.5 fold | MFI at 33.3 nM (CD28 (human) [5]): 14.5 MFI | Fold change to WT CD80 (PD-L1 (human) [6]): 286 fold | MFI at 33.3 nM (PD-L1 (human) [6]): 14800 MFI

Substance: CD80 H18Y/E35D/V68M/L85M/R94Q IgV-Fc (Fc fusion)
Ratio of PDL1:CD28 (PD-L1 (human) [3]): 1040 | Fold change to WT CD80 (human CTLA-4 (human) [4]): 11.3 fold | MFI at 33.3 nM (human CTLA-4 (human) [4]): 19800 MFI | Fold change to WT CD80 (CD28 (human) [5]): 0.4 fold | MFI at 33.3 nM (CD28 (human) [5]): 14 MFI | Fold change to WT CD80 (PD-L1 (human) [6]): 280 fold | MFI at 33.3 nM (PD-L1 (human) [6]): 14400 MFI

Substance: CD80 IgV-Fc E35D/D46E/M47V/V68M/L85Q (Fc fusion)
RLU at 5.0 nM: Fold Increase over WT CD80-IgV-Fc (CD28 (human) [7]): 2.5 fold | RLU at 5.0 nM: Fold Increase over WT CD80-IgV-Fc (PD-L1 (human) [8]): 2.5 fold

Substance: CD80 IgV-Fc E35D/M47I/V68M/Y87N (Fc fusion)
RLU at 5.0 nM: Fold Increase over WT CD80-IgV-Fc (CD28 (human) [7]): 2.4 fold | RLU at 5.0 nM: Fold Increase over WT CD80-IgV-Fc (PD-L1 (human) [8]): 2.4 fold

Substance: CD80 IgV-Fc H18Y/E35D/M38I/M47L/V68M/L85M (Fc fusion)
RLU at 5.0 nM: Fold Increase over WT CD80-IgV-Fc (CD28 (human) [7]): 0.5 fold | RLU at 5.0 nM: Fold Increase over WT CD80-IgV-Fc (PD-L1 (human) [8]): 0.5 fold

Substance: CD80 IgV-Fc H18Y/E35D/M47L/V68M/A71G/L85M (Fc fusion)
RLU at 5.0 nM: Fold Increase over WT CD80-IgV-Fc (CD28 (human) [9]): 5.5 fold | RLU at 5.0 nM: Fold Increase over WT CD80-IgV-Fc (PD-L1 (human) [10]): 5.5 fold | Fold change to WT CD80 (CD28 (human) [11]): 69.1 fold | MFI at 33.3 nM (CD28 (human) [11]): 2850 MFI | Ratio of PDL1:CD28 (PD-L1 (human) [14]): 3.5 | Fold change to WT CD80 (human CTLA-4 (human) [12]): 19.8 fold | MFI at 33.3 nM (human CTLA-4 (human) [12]): 20700 MFI | Fold change to WT CD80 (PD-L1 (human) [13]): 140 fold | MFI at 33.3 nM (PD-L1 (human) [13]): 9890 MFI
